From paper PMC6237739

How the values were obtained:
rS1-D34 = rS1-D34 (Vibrio vulnificus CMCP6, UniProt A0A3Q0L6Y6); experiment: NMR titration
rS1-D4 = rS1-D4 (Vibrio vulnificus CMCP6, UniProt A0A3Q0L6Y6 277-347); experiment: EMSA
rS1-D3 = rS1-D3 (Vibrio vulnificus CMCP6, UniProt A0A3Q0L6Y6 192-260); experiment: EMSA
rS1-D5 = rS1-D5 (Vibrio vulnificus CMCP6, UniProt A0A3Q0L6Y6 364-434); experiment: EMSA
rS1-D45 = rS1-D45 (Vibrio vulnificus CMCP6, UniProt A0A3Q0L6Y6); experiment: EMSA
rS1 full-length = rS1 full-length (Vibrio vulnificus CMCP6, UniProt A0A3Q0L6Y6); experiment: EMSA

Binder | Kd (rS1-D34) [µM] | binding result (rS1-D4) | binding result (rS1-D3) | binding result (rS1-D5) | binding result (rS1-D45) | Kd (rS1 full-length) [µM]
UCAUGAAU (ssRNA) [Asw-8] | 197 ± 50 | – | – | – | – | –
ACUCAUGAAU (ssRNA) [Asw-10] | 57 ± 6 | – | – | – | – | –
add Asw full-length (112 nt) (structured_RNA) RNA: GCUUCAUAUAAUCCUAAUGAUAUGGUUUGGGAGUUUCUACCAAGAGCCUUAAACUCUUGAUUAUGAAGUCUGUCGCUUUAUCCGAAAUUUUAUAAAGAGAAGACUCAUGAAU | – | no binding | no binding | no binding | no binding | 3 ± 1
